From patent US20200407445A1 (ITEOS THERAPEUTICS, published 2020) come the findings set out here.

Test [1] deals with T1, human TIGIT expressed on cells (human, UniProt Q495A1 22-244).
T1 construct: whole, on cells; on Jurkat E6.1 cells transduced with human TIGIT, on Promega TIGIT Effector cells or on human primary T cells; the assay field says which; also called hTIGIT; Jurkat-hTIGIT
T1 sequence (looked up): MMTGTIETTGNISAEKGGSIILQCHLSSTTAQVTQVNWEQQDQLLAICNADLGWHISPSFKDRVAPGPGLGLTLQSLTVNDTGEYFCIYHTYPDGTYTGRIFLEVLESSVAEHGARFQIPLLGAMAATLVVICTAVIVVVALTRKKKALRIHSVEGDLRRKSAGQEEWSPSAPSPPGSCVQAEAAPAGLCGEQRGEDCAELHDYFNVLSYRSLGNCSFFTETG
The test can be described thus: flow cytometry, cell binding Jurkat human TIGIT.

The target in test [2] is T1, human TIGIT expressed on cells. The test can be described thus: flow cytometry, AF647-32959 on Jurkat-hTIGIT; competitor 31282 at 0 nM. The procedure: (§1) Geometric mean fluorescence intensity was analysed using LSR BD Fortessa. Cell binding was recorded as the median florescence intensity of AF647.
The target is the same in test [3]. Nature of the test: flow cytometry, AF647-32959 on Jurkat-hTIGIT; competitor 31282 at 8 nM. The protocol:
as §1

For test [4] the target is unchanged. Nature of the test: flow cytometry, AF647-32959 on Jurkat-hTIGIT; competitor 31282 at 0.8 nM. The procedure:
as §1
A general note: In flow cytometry, cells or beads pass a laser one at a time.

Test [5] has the same target. The test can be described thus: flow cytometry, AF647-32959 on Jurkat-hTIGIT; competitor 31282 at 0.08 nM. The procedure:
as §1

Test [6] has the same target. The test can be described thus: flow cytometry, AF647-32959 on Jurkat-hTIGIT; competitor 31282 at 0.16 nM. The procedure:
as §1

B1: anti-TIGIT antibody clone 32959 (human IgG1) (antibody, V domains shown)
VH: QVQLVQSGAEVKKPGSSVKVSCKASGGTFSSYLISWVRQAPGQGLEWMGGIYPIFATANYAQKFQGRVTITADESTSTAYMELSSLRSEDTAVYYCAREAQSYRVPFDIWGQGTMVTVSS
VL: EIVMTQSPATLSVSPGERATLSCRASQSVSSNLAWYQQKPGQAPRLLIYGASTRATGIPARFSGSGSGTEFTLTISSLQSEDFAVYYCQQYAIWPPFTFGGGTKVEIK
modifications: The antibody was directly coupled to the dye AF647 in Example 24; the attachment sites are not stated.
notes: human IgG1 made in HEK cells
In the case of B1, the “FON (Fold Over Negative)” value in test [1] stood at 588 fold. Further, the EC50 was 0.22 nM in test [2]; 0.39 nM in test [3]; 0.49 nM in test [4]; 0.33 nM in test [5]; 0.37 nM in test [6].

The EC50 is the concentration at which the effect is half-maximal. Low values mean greater potency, high ones weaker potency.
